Values quoted from earlier work, collected in article PMC4963854, “Mapping Protein–Protein Interactions of the Resistance-Related Bacterial Zeta Toxin–Epsilon Antitoxin Complex (ε2ζ2) with High Affinity Peptide Ligands Using Fluorescence Polarization” (Toxins, 2016).
pKd: −log10 of the molar value.

Molecular target: Zeta toxin (Streptococcus pyogenes) (UniProt Q54944)
Sequence (Q54944 2-287): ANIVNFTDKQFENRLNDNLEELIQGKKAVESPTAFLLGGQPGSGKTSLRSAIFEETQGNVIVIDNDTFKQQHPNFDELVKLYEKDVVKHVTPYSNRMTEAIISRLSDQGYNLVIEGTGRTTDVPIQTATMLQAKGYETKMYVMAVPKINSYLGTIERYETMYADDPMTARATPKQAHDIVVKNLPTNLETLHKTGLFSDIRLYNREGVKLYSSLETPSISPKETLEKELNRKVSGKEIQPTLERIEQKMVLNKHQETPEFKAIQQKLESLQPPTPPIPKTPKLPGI

Sequence of Epsilon antitoxin (Q57231 2-90): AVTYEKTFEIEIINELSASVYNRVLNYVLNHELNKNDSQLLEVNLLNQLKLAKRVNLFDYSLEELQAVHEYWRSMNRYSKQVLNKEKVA

## Epsilon antitoxin (from UniProt Q57231)
  pKd: 6.00
